Measured values as given in paper PMC6819324.

Molecular target: T1, AdpAlin (Streptomyces lincolnensis NRRL 2936) (UniProt A0A1B1M9Y0)
T1 sequence: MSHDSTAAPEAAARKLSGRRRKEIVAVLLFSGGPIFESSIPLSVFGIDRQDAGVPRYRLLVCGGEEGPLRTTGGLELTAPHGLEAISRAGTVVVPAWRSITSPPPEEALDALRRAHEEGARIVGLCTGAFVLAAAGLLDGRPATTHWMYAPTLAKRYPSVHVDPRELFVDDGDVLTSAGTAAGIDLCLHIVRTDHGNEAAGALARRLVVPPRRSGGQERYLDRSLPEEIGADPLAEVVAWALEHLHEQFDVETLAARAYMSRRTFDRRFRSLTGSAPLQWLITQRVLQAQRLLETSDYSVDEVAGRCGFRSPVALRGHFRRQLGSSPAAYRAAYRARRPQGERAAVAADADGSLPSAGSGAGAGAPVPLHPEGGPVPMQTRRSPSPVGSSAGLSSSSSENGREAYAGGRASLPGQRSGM
Assay: EMSA
Settings: EMSA: 20 mM Tris-HCl pH 7.5, 5% glycerol, 0.1% BSA; 2.5 nM 5'-biotin probe; AdpAlin 0-6.4 uM (12.8 uM for probe-neg); 200-fold unlabeled competitor; salt and …

| Sequence | binding |
| --- | --- |
| AGCCAGTGACGATAAGCGACCACCTGGGTCTCGCCCTGACCGTAGATCTTCGACAGATCCGTGGCACGCGCCGCCACTGCGGTGGTCCGGCCGACGATGGGTGTGGTGGTCACGAGAGGGCACTCCTGGGAACGACGACTGGGGGAATACCTCCATCGTCGCCGCCGCGGAGCGCCGTGTAGTCAGCCGCTGTTCCCTTATCGTCACTGGCT (double strand) [bldAp-N] | no binding |
| AGCCAGTGACGATAAGCGAGACAAGCAATCGGCTTCACGCCCTGTCAAGCGGCAGCAGACGGCTTCCCGTAATTCCTGGAAGTTATCCGGGAGTCGGCGCGAACGGCCCTCGATATCCGGTGCATTACCTGGGAATAGGGAATAGGGAACCGGTAATCCGCGGTCGGGGCAAGCGTCTGGGTGCGTGGACTTATCGTCACTGGCT (double strand) [mlmbAp-A] | no binding |
| AGCCAGTGACGATAAGCGAGACAAGCAATCGGCTTCACGCCCTGTCAAGCGGCAGCAGACGGCTTCCCGTAATTCCTGGAAGTTATCCGGGAGTCGGCGCGAACGTGCCGCCACGGCCCTCGATATCCGGTGCATTACCTGGGAATAGGGAATAGGGAACCGGTAATCCGCGGTCGGGGCAAGCGTCTGGGTGCGTGGACTTATCGTCACTGGCT (double strand) [lmbAp-A] | binds |
| AGCCAGTGACGATAAGCGGGGACACACAGGGGTGGGCGGCACGGTGGGGGAAATACACCGGTCGGCTGACCGGTTTCCGCGCACGCGCCCGACTCTTTTCAGCCAACTTCCGACCACCGGGCATCCTTGTGTCCAACCACCCCCCAACCCCCGTTTGACCTGCACGGAAAGGGTCCCCACTTATCGTCACTGGCT (double strand) [adpAp-B-1] | no binding |
| AGCCAGTGACGATAAGCGTGTCTGCATTCCACCATCCGGGCAGGCCATGGGCTCCGCATCGAGGTTCCCGAGCCTATCGGGACGCCTCCCCCCAACAGGGGTCGGGTGGCCCGATGTTGTCTTATTTTATTGAGTTCTGAGGGAGCCTTATCGTCACTGGCT (double strand) [bldAp-A] | binds |
| AGCCAGTGACGATAAGCTATAGGCTTCGCGGGCTTCGAACTCCGCAGCCGCCACGCCGACTTCGACGGTGCCGCCTACCGCCCGGACAGCCGCTACCACGTGTCCGTCTACGCCCGGGCGCACGGTGACTAGGGCGCGACGGCTCGCCGCCGCCGCGTTCCGGGCCTTATCGTCACTGGCT (double strand) [mlmbKp-B] | no binding |
| AGCCAGTGACGATAAGGCGTTTACCTAGAACAAATCCGGGGCAAGCTCGCTCAGCTGTCGCCATGGGCGCCCTGACGCCACTGCGGCCCACGGATCGCCCCGTCAGCAAACTGGCCGAATGCCAACGGCATACGGCCAGTTCCTGACGCGGGCCACGGGGTTCACTCCGCGGACCACGCGTGCGGCGGCCGCCTCACTTATCCCGATGAGGCCACGCGTCGTCCGCCTCCGCGATCTCCTCCAGGGTTCCGTCCTTATCGTCACTGGCT (double strand) [lmbUp-C] | binds |
| AGCCAGTGACGATAAGGGCCACACGTCGTAGACATCTGCGATCTTGTCACCGTAGAGCTTCGCGAAATCATGGTCGGACATTGAATTCTCTTTCCTCACCAGGACGTTGGCCACTCGGCGAGCGGCCGCAGGGAGACGGTGGCATGGGACGCGAGGGACAGTCGACACGGCAGCCGGTACCGGCGGTGTTCTTCGACCGGGACGGCGCTTATCGTCACTGGCT (double strand) [lmbJp-A] | binds |
| AGCCAGTGACGATAAGGGCCACACGTCGTAGACATCTGCGATCTTGTCACCGTAGAGCTTCGCGAAATCATGGTCGGACATTGAATTCTCTTTCCTCACCAGGCTCGGCGAGCGGCCGCAGGGAGACGGTGGCATGGGACGCGAGGGACAGTCGACACGGCAGCCGGTACCGGCGGTGTTCTTCGACCGGGACGGCGCTTATCGTCACTGGCT (double strand) [mlmbJp-A] | no binding |
| AGCCAGTGACGATAAGGGCGTAGACGGACACGTGGTAGCGGCTGTCCGGGCGGTAGGCGGCACCGTCGAAGTCGGCGTGGCGGCTGCGGAGTTCGAAGCCCGCGAAGCGGGCCATCAGGTCCAGCTCCGTGGGGTGCTTATCGTCACTGGCT (double strand) [lmbKp-B] | binds |
| AGCCAGTGACGATAAGGGTTCCCGTGGTGCTCCTCTGGTACGGCACCTCGCTCGCCGGCGCCGCCGGCACCGCGCTCGGACTGGCCGCCGTCACCGCCGTCTGCCGTATCCTCCTGCGCCAGTCGGAGCGCGGTGCGGCACGGCTACTGGCCGAAGAACGGGCCCCCCATCGCGGCCACCGCCACCGGGCCGGAACGGGGACACACAGGGGTGGGCGCTTATCGTCACTGGCT (double strand) [adpAp-B-2] | binds |
| AGCCAGTGACGATAAGTCGGACGAGGACGACGACAACCCCGCGGACGACCCGACAGGACTCGGCGAACGCCGCGTCTGCATCGGCACCGGCCCGCCCTCCGGATGCAGCGGAACCGGCGCACCGGCACCCGCCCCCGATCCGGCGGACGGCAAGGACCCGTCAGCGTCCTTATCGTCACTGGCT (double strand) [probe-neg] | no binding |
| AGCCAGTGACGATAAGTCTACTGTGTCGCGTGATGCCGGAGTGACCAGTTCGTCATCCGGCAGATTGTCGACTTGGCAACTTGGCGTGAAGCATTCGATCACGAAGCGTTGCACTCGTGGGGCGTGCAGGGAAGTGCGCCTTGTCGCAGTGGCCAATCCACGTAGGGTGCGCTTATCGTCACTGGCT (double strand) [adpAp-A] | binds |
| AGCCAGTGACGATAAGTGATCCGTACTTGATACATTGGCCGTTACATGTATCGGAGTTCCGAGGGGGGGCAATGATGCTGGTTCCGCCAAGCCATTCATGAGCTGCTCGCCTGCGCCGCCCTTCGTGGCGGTGGCGCGACATCGATGAGCGTGGTGGGCGCCGAACAACGGGGGTGAATCGCTGCTTCTTATCGTCACTGGCT (double strand) [lmbUp-A] | binds |
